Positions count from the first letter of the chain named.
Key:
[1] = target: T1, human MARCO (R&D biosystems), recombinant, coated in the LDL competition assay (human, UniProt Q9UEW3 70-520, limits assumed); assay: LDL competition on coated human MARCO (MSD), competitor biotinylated hLDL
T1 construct: Bought protein
T1 sequence (looked up): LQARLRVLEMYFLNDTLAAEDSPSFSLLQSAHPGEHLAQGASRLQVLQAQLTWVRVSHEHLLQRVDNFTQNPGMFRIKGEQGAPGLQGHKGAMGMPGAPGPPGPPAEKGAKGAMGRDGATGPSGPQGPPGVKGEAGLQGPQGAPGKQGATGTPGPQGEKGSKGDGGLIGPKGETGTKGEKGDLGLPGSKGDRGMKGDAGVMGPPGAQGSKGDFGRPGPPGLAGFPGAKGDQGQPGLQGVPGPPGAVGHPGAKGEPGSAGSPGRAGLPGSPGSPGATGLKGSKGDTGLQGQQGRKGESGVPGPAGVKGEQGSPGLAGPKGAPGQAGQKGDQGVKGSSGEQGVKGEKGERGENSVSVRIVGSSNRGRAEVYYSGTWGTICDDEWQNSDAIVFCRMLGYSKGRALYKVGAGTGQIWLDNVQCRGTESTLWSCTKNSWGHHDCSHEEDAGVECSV
Protocol: A high-binding, 96-well MSD plate was coated with 4 μg/ml mouse MARCO or 4 μg/ml human MARCO (R&D biosystems). After the plate was blocked with PBST and 5% BSA for an hour, titrated anti-mouse or anti-human MARCO antibodies were added to the plate and incubated for 30 minutes. Biotinylated hLDL (860 pM or 2 μg/ml) were added to the antibody, and the antibody/LDL mixture was incubated for an hour to allow the mixture to reach binding equilibrium. The plates were washed and bound biotinylated LDL was detected with Sulfo-tagged streptavidin that generates an electrocheminlumenscent signal when read buffer is added and electricity is applied to the electrodes in the MSD plate. IC50's were calculated using a 4-parameter curve fit in GraphPad Prism software.

[2] = target: T2, N-terminally polyhistidine tagged human MARCO ECD (147-520), recombinant (human, UniProt Q9UEW3 147-520); assay: ELISA on recombinant human MARCO, 10 mM EDTA
T2 construct: also called PI-RG-3000; recombinant human MARCO; not shown: N-terminal polyhistidine tag
T2 sequence: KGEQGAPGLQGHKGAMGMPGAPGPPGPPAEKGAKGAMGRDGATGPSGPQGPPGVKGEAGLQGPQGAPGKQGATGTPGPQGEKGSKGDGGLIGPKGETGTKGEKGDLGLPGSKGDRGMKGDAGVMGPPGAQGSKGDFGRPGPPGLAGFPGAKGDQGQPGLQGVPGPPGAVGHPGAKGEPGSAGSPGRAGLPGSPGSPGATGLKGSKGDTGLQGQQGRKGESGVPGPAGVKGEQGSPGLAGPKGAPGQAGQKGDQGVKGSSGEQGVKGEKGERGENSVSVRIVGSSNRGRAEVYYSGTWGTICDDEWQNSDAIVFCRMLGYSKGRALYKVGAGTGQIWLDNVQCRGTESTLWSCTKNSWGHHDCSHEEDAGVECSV
Protocol: (§1) After the plates were incubated at room temperature for 1 hour or 4° C. overnight, the plates were wash 3 times with ELISA wash buffer (PBS/0.05% TWEEN-20), then hybridoma supernatant (1:5 dilution) or purified antibody (1 ug) was diluted in DPBS/Ca2+/2% FBS, DPBS without Ca2+/2 mM EDTA/2% FBS, DPBS without Ca2+/10 mM EDTA/2% FBS, and DPBS without Ca2+/50 mM EDTA/2% FBS. Plates again were incubated at room temperature for 1 hour.

[3] = target: T2, N-terminally polyhistidine tagged human …; assay: ELISA on recombinant human MARCO, 0 mM EDTA
Protocol: as §1

[4] = target: T3, Human Macrophage Receptor with Collagenous Structure (MARCO), full length, on cells (human, UniProt Q9UEW3 1-520); assay: flow cytometry, 293T HuMARCO cells
T3 construct: the cell type is named under assay; also called huMARCO; HuMARCO
T3 sequence: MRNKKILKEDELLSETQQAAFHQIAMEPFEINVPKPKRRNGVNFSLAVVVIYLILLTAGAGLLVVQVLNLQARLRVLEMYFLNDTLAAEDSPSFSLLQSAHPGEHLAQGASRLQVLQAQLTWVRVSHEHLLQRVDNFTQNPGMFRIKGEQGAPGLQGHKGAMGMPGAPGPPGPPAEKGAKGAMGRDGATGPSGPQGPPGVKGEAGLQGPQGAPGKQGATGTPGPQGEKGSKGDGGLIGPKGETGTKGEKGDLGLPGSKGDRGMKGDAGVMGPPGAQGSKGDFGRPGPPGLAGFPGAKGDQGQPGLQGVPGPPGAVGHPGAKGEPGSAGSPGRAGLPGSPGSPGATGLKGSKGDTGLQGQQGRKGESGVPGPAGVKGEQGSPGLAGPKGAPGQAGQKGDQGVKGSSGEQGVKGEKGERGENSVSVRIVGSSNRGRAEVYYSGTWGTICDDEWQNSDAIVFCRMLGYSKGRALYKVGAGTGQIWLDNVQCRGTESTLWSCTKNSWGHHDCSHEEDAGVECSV
Summary of the method: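 HEK293T cells expressing human or cynomolgus MARCO were tested for antibody binding by flow cytometry. At 100,000 cells/well, Zombie NIR-stained cells received an 8-point three-fold dilution of antibody from 100 nM in D-PBS/2% FBS/2 mM EDTA for 1 hr on ice, then APC goat anti-mouse IgG for 30 min on ice. Geometric mean fluorescence intensities were analysed in FlowJo and Prism.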

[5] = target: T2, N-terminally polyhistidine tagged human …; assay: Biacore; isomerization/fragmentation stress sample

B1: PI-HX-3061 (antibody, rat IgG2a)
heavy: EVQLVESGGGLVQPGSSLKLSCVASKFTFSNYGMNWIRQAPKKGLEWIALIYYNSNNKYYADSVKGRFTISRDNSKNTLYLEMNSLRSEDTAMYYCAKSLTGGSDYFDSWGQGVMVTVSSAETTAPSVYPLAPGTALKSNSMVTLGCLVKGYFPEPVTVTWNSGALSSGVHTFPAVLQSGLYTLTSSVTVPSSTWPSQTVTCNVAHPASSTKVDKKIVPRNCGGDCKPCICTGSEVSSVFIFPPKPKDVLTITLTPKVTCVVVDISQDDPEVHFSWFVDDVEVHTAQTRPPEEQFNSTFRSVSELPILHQDWLNGRTFRCKVTSAAFPSPIEKTISKPEGRTQVPHVYTMSPTKEEMTQNEVSITCMVKGFYPPDIYVEWQMNGQPQENYKNTPPTMDTDGSYFLYSKLNVKKEKWQQGNTFTCSVLHEGLHNHHTEKSLSHSP
light: DVQMTQSPSYLAASPGESVSISCKASKSIGTFLAWYQEKPEKTNKLLIYSGSTLQSGTPSRFSGSGSGTDFTLTIRNLEPEDFAVYYCQQHDEYPFTFGSGTKLEIKRADAAPTVSIFPPSTEQLATGGASVVCLMNNFYPRDISVKWKIDGTERRDGVLDSVTDQDSKDSTYSMSSTLSLTKADYESHNLYTCEVVHKTSSSPVVKSFNRNEC
notes: Parental rat hybridoma, rat IgG2a; cross reactive with human and mouse MARCO
In the case of B1, the EC50 [1] is reported as 8.2 nM.

B2: PI-HX-3031 (antibody)
heavy: QVQLKESGPGLVQPSQTLSLTCTVSGFSLTSYHVSWVRQPPGKGLEWMGAIWTGGSIAYNSLLKSRLSISRDTSKSQVFLKMNSLQTEDTATYYCARDLSDYYSSYTSFDYWGQGVMVTVSTAETTAPSVYPLAPGTALKSNSMVTLGCLVKGYFPEPVTVTWNSGALSSGVHTFPAVLQSGLYTLTSSVTVPSSTWSSQAVTCNVAHPASSTKVDKKIVPRECNPCGCTGSEVSSVFIFPPKTKDVLTITLTPKVTCVVVDISQNDPEVRFSWFIDDVEVHTAQTHAPEKQSNSTLRSVSELPIVHRDWLNGKTFKCKVNSGAFPAPIEKSISKPEGTPRGPQVYTMAPPKEEMTQSQVSITCMVKGFYPPDIYTEWKMNGQPQENYKNTPPTMDTDGSYFLYSKLNVKKETWQQGNTFTCSVLHEGLHNHHTEKSLSHSP
light: DIQMTQSPASLSTSLGETVSIECLASEGISNDLAWYQQKSGKSPQLLIYAASRLQDGVPSRFSGSGSGTRYSLKISGMQPEDEADYFCQQSYKYPLTFGSGTKLEIKRADAAPTVSIFPPSTEQLATGGASVVCLMNNFYPRDISVKWKIDGTERRDGVLDSVTDQDSKDSTYSMSSTLSLTKADYESHNLYTCEVVHKTSSSPVVKSFNRNEC
notes: Parental rat hybridoma, rat IgG2a
B2 was tested, and the “ELISA signal (A450)” value [2] was 0.0589 and the “ELISA signal (A450)” value [3] was 1.37.

B3: PI-HX-3043 (antibody, rat IgG2a)
heavy: QVNLLQSRAALVKPGASVKLSCKASGYTFTDYYLHWVKQSHAKSLEWIGYINPNNAYTSYNEKFKSKATLTVDKSTNTAYMELSRLTSADSATYYCARDTTDYYNLHFAYWGQGTLVTVSSAETTAPSVYPLAPGTALKSNSMVTLGCLVKGYFPEPVTVTWNSGALSSGVHTFPAVLQSGLYTLTSSVTVPSSTWSSQAVTCNVAHPASSTKVDKKIVPRECNPCGCTGSEVSSVFIFPPKTKDVLTITLTPKVTCVVVDISQNDPEVRFSWFIDDVEVHTAQTHAPEKQSNSTLRSVSELPIVHRDWLNGKTFKCKVNSGAFPAPIEKSISKPEGTPRGPQVYTMAPPKEEMTQSQVSITCMVKGFYPPDIYTEWKMNGQPQENYKNTPPTMDTDGSYFLYSKLNVKKETWQQGNTFTCSVLHEGLHNHHTEKSLSHSP
light: B2 light with T13A, A25T, A50D, Q55E, P80T
notes: as for B2
B3 was tested, and the “ELISA signal (A450)” value [2] was 0.06, the “ELISA signal (A450)” value [3] was 1.2 and the EC50 [1] was 3.4 nM.

B4: PI-HX-3021 (antibody, V domains shown)
VH: QVRLVQSGTALVRPGASVRMSCTASGYSFTDYWVSWVKQSHGQSLEWIGEIYPNSGTTNFNEKFEGKATLTVDKSTSTAYMELSRLTSEDSAIYYCTGEGTFDYWGQGVMVTVSS
VL: EIVLTQSPTTMAASPGEKVTITCRPSSSLSNMHWFQQKSGTSPKPWIYDTSKLASGVPDRFSGSGSGTSYSLTISSMEAEDAATYYCLQRSSYPPTFGAGTKLELK
notes: Rat IgG2a hybridoma antibody; Not the effector dead PI-3021; also called PI-3007 (name of the recombinant form)
B4: no binding [4].

B5: PI-HX-3016 (antibody, rat IgG1, V domains shown)
VH: EVQLVESGGGLVKPGASLKLSCVASGFTFSDDWMNWVRQTPGKAMEWIGDIKYDGSYTNYVPSLKNRLTISRDNAKNTLYLQMTNVRSEDTATYYCTSGGVFDYWGQGVMVTVSS
VL: B4 VL with T5S, P25A, L29V, N31Y, S92G, L105V
notes: Rat IgG1 hybridoma antibody
B5: no binding [4].

B6: PI-3015-AB (antibody, human IgG1, kappa)
heavy: not shown
light: DIQMTQSPSSLSASVGDRVTITCRASEGISNDLAWYQQKPGKAPKLLIYAASRLQSGVPSRFSGSGSGTDYTLTISSMQPEDFATYYCQQSYKYPLTFGQGTKLEIKRTVAAPSVFIFPPSDEQLKSGTASVVCLLNNFYPREAKVQWKVDNALQSGNSQESVTEQDSKDSTYSLSSTLTLSKADYEKHKVYACEVTHQGLSSPVTKSFNRGEC
For B6, the Kd [5] was 1.24 nM.

— US20220153832A1 (PIONYR IMMUNOTHERAPEUTICS, published 2022)
